± gives the uncertainty stated by the source.
B1: Calcium-binding protein 2, residues 155 to 219; numbered along this chain, Q9NPB3 (parent)
chain: RELRDAFREFDTNGDGRISVGELRAALKALLGERLSQREVDEILQDVDLNGDGLVDFEEFVRMMS

Variants of: B1
Experiment: abundance fitness (aPCA) (normalised: wild type 0, dead -1); higher = more abundant; growth selection in yeast, the domain comes from the species named
Conditions: Homo sapiens

Compared with RELRDAFREFDTNGDGRISVGELRAALKALLLERLSQREVDEILQDVDLNGDGLVDFEEFVRMMS [G32L], RELRDAFREFDTNGDGRISVGELRAALKALLFERLSQREVDEILQDVDLNGDGLVDFEEFVRMMS [G32F] is higher in abundance fitness: -0.64 ± 0.12 for the first, -0.275 ± 0.12 for the second.

RELRDAFREFDTNGDGRISVGELRAALKALLCERLSQREVDEILQDVDLNGDGLVDFEEFVRMMS [G32C] and RELRDAFREFDTNGDGRISVGELRAALKALLSERLSQREVDEILQDVDLNGDGLVDFEEFVRMMS [G32S] are within error of each other in abundance fitness: -0.514 ± 0.2 for the first, -0.453 ± 0.083 for the second.

RELRDAFREFDTNGDGRISVGELRAALKALLDERLSQREVDEILQDVDLNGDGLVDFEEFVRMMS [G32D] and RELRDAFREFDTNGDGRISVGELRAALKALLRERLSQREVDEILQDVDLNGDGLVDFEEFVRMMS [G32R] are within error of each other in abundance fitness: -0.29 ± 0.17 for the first, -0.258 ± 0.067 for the second.

RELRDAFREFDTNGDGRISVGELRAALKALLVERLSQREVDEILQDVDLNGDGLVDFEEFVRMMS [G32V] and RELRDAFREFDTNGDGRISVGELRAALKALLPERLSQREVDEILQDVDLNGDGLVDFEEFVRMMS [G32P] are within error of each other in abundance fitness: -0.429 ± 0.19 for the first, -0.026 ± 0.3 for the second.

RELRDAFREFDTNGDGRISVGELRAALKALLWERLSQREVDEILQDVDLNGDGLVDFEEFVRMMS [G32W] and RELRDAFREFDTNGDGRISVGELRAALKALLIERLSQREVDEILQDVDLNGDGLVDFEEFVRMMS [G32I] are within error of each other in abundance fitness: -0.282 ± 0.1 for the first, -0.438 ± 0.32 for the second.

Compared with RELRDAFREFDTNGDGRISVGELRAALKALLMERLSQREVDEILQDVDLNGDGLVDFEEFVRMMS [G32M], RELRDAFREFDTNGDGRISVGELRAALKALLKERLSQREVDEILQDVDLNGDGLVDFEEFVRMMS [G32K] is higher in abundance fitness: -0.567 ± 0.12 for the first, -0.206 ± 0.1 for the second.

RELRDAFREFDTNGDGRISVGELRAALKALLYERLSQREVDEILQDVDLNGDGLVDFEEFVRMMS [G32Y] and RELRDAFREFDTNGDGRISVGELRAALKALLTERLSQREVDEILQDVDLNGDGLVDFEEFVRMMS [G32T] are within error of each other in abundance fitness: -0.269 ± 0.32 for the first, -0.526 ± 0.15 for the second.

Compared with RELRDAFREFDTNGDGRISVGELRAALKALLEERLSQREVDEILQDVDLNGDGLVDFEEFVRMMS [G32E], RELRDAFREFDTNGDGRISVGELRAALKALLNERLSQREVDEILQDVDLNGDGLVDFEEFVRMMS [G32N] is higher in abundance fitness: -0.522 ± 0.083 for the first, -0.246 ± 0.12 for the second.

RELRDAFREFDTNGDGRISVGELRAALKALLGERCSQREVDEILQDVDLNGDGLVDFEEFVRMMS [L35C] and RELRDAFREFDTNGDGRISVGELRAALKALLGERDSQREVDEILQDVDLNGDGLVDFEEFVRMMS [L35D] are within error of each other in abundance fitness: -0.113 ± 0.18 for the first, 0.064 ± 0.076 for the second.

RELRDAFREFDTNGDGRISVGELRAALKALLGERHSQREVDEILQDVDLNGDGLVDFEEFVRMMS [L35H] and RELRDAFREFDTNGDGRISVGELRAALKALLGERPSQREVDEILQDVDLNGDGLVDFEEFVRMMS [L35P] are within error of each other in abundance fitness: 0.061 ± 0.18 for the first, -0.02 ± 0.087 for the second.

RELRDAFREFDTNGDGRISVGELRAALKALLGERSSQREVDEILQDVDLNGDGLVDFEEFVRMMS [L35S] and RELRDAFREFDTNGDGRISVGELRAALKALLGERGSQREVDEILQDVDLNGDGLVDFEEFVRMMS [L35G] are within error of each other in abundance fitness: -0.031 ± 0.073 for the first, 0.088 ± 0.069 for the second.

Going from RELRDAFREFDTNGDGRISVGELRAALKALLGERFSQREVDEILQDVDLNGDGLVDFEEFVRMMS [L35F] to RELRDAFREFDTNGDGRISVGELRAALKALLGERRSQREVDEILQDVDLNGDGLVDFEEFVRMMS [L35R], the abundance fitness rises from -0.257 ± 0.12 to 0.096 ± 0.069.

RELRDAFREFDTNGDGRISVGELRAALKALLGERESQREVDEILQDVDLNGDGLVDFEEFVRMMS [L35E] and RELRDAFREFDTNGDGRISVGELRAALKALLGERISQREVDEILQDVDLNGDGLVDFEEFVRMMS [L35I] are within error of each other in abundance fitness: -0.109 ± 0.12 for the first, 0.087 ± 0.15 for the second.

RELRDAFREFDTNGDGRISVGELRAALKALLGERWSQREVDEILQDVDLNGDGLVDFEEFVRMMS [L35W] and RELRDAFREFDTNGDGRISVGELRAALKALLGERKSQREVDEILQDVDLNGDGLVDFEEFVRMMS [L35K] are within error of each other in abundance fitness: 0.045 ± 0.087 for the first, 0.244 ± 0.17 for the second.

RELRDAFREFDTNGDGRISVGELRAALKALLGERASQREVDEILQDVDLNGDGLVDFEEFVRMMS [L35A] and RELRDAFREFDTNGDGRISVGELRAALKALLGERQSQREVDEILQDVDLNGDGLVDFEEFVRMMS [L35Q] are within error of each other in abundance fitness: 0.1 ± 0.082 for the first, 0.043 ± 0.12 for the second.

RELRDAFREFDTNGDGRISVGELRAALKALLGERNSQREVDEILQDVDLNGDGLVDFEEFVRMMS [L35N] and RELRDAFREFDTNGDGRISVGELRAALKALLGERVSQREVDEILQDVDLNGDGLVDFEEFVRMMS [L35V] are within error of each other in abundance fitness: 0.091 ± 0.26 for the first, -0.015 ± 0.089 for the second.

Going from RELRDAFREFDTNGDGRISVGELRAALKALLGERMSQREVDEILQDVDLNGDGLVDFEEFVRMMS [L35M] to RELRDAFREFDTNGDGRISVGELRAALKALLGERTSQREVDEILQDVDLNGDGLVDFEEFVRMMS [L35T], the abundance fitness rises from -0.399 ± 0.13 to 0.028 ± 0.14.

RELRDAFREFDTNGDGRISVGELRAALKALLGERYSQREVDEILQDVDLNGDGLVDFEEFVRMMS [L35Y] and RELRDAFREFDTNGDGRISVGELRAALKALLGERLIQREVDEILQDVDLNGDGLVDFEEFVRMMS [S36I] are within error of each other in abundance fitness: 0.015 ± 0.16 for the first, 0 ± 0.43 for the second.

RELRDAFREFDTNGDGRISVGELRAALKALLGERLFQREVDEILQDVDLNGDGLVDFEEFVRMMS [S36F] and RELRDAFREFDTNGDGRISVGELRAALKALLGERLAQREVDEILQDVDLNGDGLVDFEEFVRMMS [S36A] are within error of each other in abundance fitness: -0.085 ± 0.13 for the first, 0.041 ± 0.066 for the second.

Going from RELRDAFREFDTNGDGRISVGELRAALKALLGERLLQREVDEILQDVDLNGDGLVDFEEFVRMMS [S36L] to RELRDAFREFDTNGDGRISVGELRAALKALLGERLGQREVDEILQDVDLNGDGLVDFEEFVRMMS [S36G], the abundance fitness falls from 0.025 ± 0.054 to -0.093 ± 0.055.

RELRDAFREFDTNGDGRISVGELRAALKALLGERLKQREVDEILQDVDLNGDGLVDFEEFVRMMS [S36K] showed an abundance fitness of 0.047 ± 0.11.
